In PMC11106487:
Where “and” joins values, the source holds several entries; their conditions need not be identical. Equal entries are not always repeated.

What was measured:
[1] = target: GFP-FR, stably expressed in CHO cells; test: number and brightness (N&B); live CHO cells, 2 days in culture, cell surface imaged at the cell periphery; untreated control
[2] = target: GFP-FR (GFP fused to the GPI attachment signal of the folate receptor), expressed in MDCK cells; test: number and brightness (N&B); live polarized MDCK cells, plasma membrane pool only: cycloheximide 90 min, then with or without EGTA still in the presence of cycloheximide
[3] = target: GFP-FR (GFP fused to the GPI attachment signal of the folate receptor), expressed in MDCK cells; test: number and brightness (N&B); live polarized MDCK cells, Golgi pool: apical trypsin 25 ug/mL for 25 min to remove the surface pool, untreated (CTR), imaged at the Golgi level
[4] = target: GFP-FR (GFP fused to the GPI attachment signal of the folate receptor), expressed in MDCK cells; test: number and brightness (N&B); live polarized MDCK cells on filters, apical surface, CO2-independent medium pH 7.4; control cells and cells treated with latrunculin A (6 uM, 5 min), jasplakinolide (5 uM, 5 min) or blebbistatin (50 uM, 90 min); also after EGTA followed by calcium replenishment for 3 h; B-values ascribed to oligomer classes by a calibration curve of monomeric, dimeric and trimeric GFP

Substance	brightness (B) [1]	stoichiometry N [1]	mean brightness (B), plasma membrane pool, control [2]	mean brightness (B), plasma membrane pool, upon EGTA [2]	mean brightness (B), Golgi pool, control [3]	brightness (B) [4]	brightness (B) upon latrunculin A [4]	mean brightness (B), control of the EGTA experiment [4]	stoichiometry N [4]
GFP-FR, stably expressed in CHO cells	1.3	3 and 4							
GFP-FR (GFP fused to the GPI attachment signal of the folate receptor), expressed in MDCK cells			1.19	1.2	1.2	1.21	1.23	1.29	3 and 4
